According to patent publication US20150224182A1 (UNIVERSITY OF VIRGINIA PATENT FOUNDATION, published 2015):
Non-standard residues stand in square brackets, D forms with d. No end group written: not given here. pT = C[C@@H](OP(=O)(O)O)[C@H](N)C(=O)O; pS = N[C@@H](COP(=O)(O)O)C(=O)O

Biological target: T1, HLA-A*0201 (human)
T1 construct: also called HLA-A2
Assay: listed as presented with class I MHC on cancer cells (leukemia or transformed B cells)

Row | Binder | binding result
1 | KVA[pS]LLHQV [KVAsLLHQV] | binds
2 | DS[pS]EEKFL (From Statherin (saliva), UniProt P02808) [DSsEEKFL] | binds
3 | RPRSLSSPTVTL (also: one of Ser4, Ser6, Ser7 phosphorylated, From E3 ubiquitin-protein ligase NEDD4-like, UniProt Q96PU5) [RPR(sLss)PTVTL] | binds
4 | YQL[pS]PTKLPSI (From Nibrin/cell cycle regulatory protein p95, UniProt O60934) [YQLsPTKLPSI] | binds
5 | KLLQFYP[pS]L [KLLQFYPsL] | binds
6 | RLA[pS]LNAEAL (From Bromo adjacent homology domain-containing 1 protein, UniProt Q8TBE0) [RLAsLNAEAL] | binds
7 | KLF[pS]PSKEAEL (From Protein cramped-like, UniProt Q96RY5) [KLFsPSKEAEL] | binds
8 | KMY[pS]EIDIKV (From 116 kDa U5 small nuclear ribonucleoprotein component, UniProt Q15029) [KMYsEIDIKV] | binds
9 | VLMKSPSPAL (also: one of S5 or S7 phosphorylated, From YTHDC2, UniProt Q9H6S0) [VLMK(sPs)PAL] | binds
10 | ILD[pS]GIYRI (From Hermansky-Pudlak syndrome 5 protein, UniProt Q9UPZ3) [ILDsGIYRI] | binds
11 | KMD[pS]FLDMQL [KMDsFLDMQL] | binds
12 | RQA[pS]LSISV (From Protein kinase 2D, UniProt A0JLT6) [RQAsLSISV] | binds
13 | KLMAPDI[pS]L [KLMAPDIsL] | binds
14 | RQI[pS]FKAEV (From Ubiquitin-conjugating enzyme E2 J1, UniProt Q9Y385) [RQIsFKAEV] | binds
15 | MLAE[pS]PSVPRL (From Putative uncharacterized protein, UniProt Q8WUC7) [MLAEsPSVPRL] | binds
16 | GLL[pS]PARLYAI (From Leucine rich PPR-motif containing protein, UniProt P42704) [GLLsPARLYAI] | binds
17 | KLD[pS]PRVTV (From Protein FAM86A, UniProt Q96G04) [KLDsPRVTV] | binds
18 | KAK[pS]PAPGL (From Nuclear receptor corepressor 2, UniProt Q9Y618) [KAKsPAPGL] | binds
19 | KIF[pS]GVFVKV (From 60S ribosomal protein L7-like 1, UniProt Q6DKI1) [KIFsGVFVKV] | binds
20 | KVL[pS]TEEMEL (From Protein FAM128B, UniProt Q6NZ67) [KVLsTEEMEL] | binds
21 | RTY[pS]GPMNKV (From POF1B, UniProt Q8WVV4) [RTYsGPMNKV] | binds
22 | GGSFGGRSSG[pS]P (From HNRNPA3, UniProt P51991) [GGSFGGRSSGsP] | binds

Biological target: T2, HLA-B*0702 (human)
T2 construct: also called HLA-B7
Assay: HLA-B7 eluate MS; AML1; 1 means <1 copy/cell
Description: (§1) The mixture was subjected to centrifugation and the resulting supernatant was passed over protein A sepharose pre-loaded with the HLA-A2-specific antibody BB7.2 or HLA-B7-specific antibody ME1. Peptides were eluted from the purified class I MHC molecules with 10% acetic acid.

Row | Binder | binding result
23 | SPEKAGRR[pS]SL [CCDC88B phosphopeptide SPEKAGRRsSL] | binds
24 | RPR[pS]LEVTI (also called Pyrin) [MEFV phosphopeptide RPRsLEVTI] | binds
25 | LPA[pS]PRARL [MAP7D1 phosphopeptide LPAsPRARL] | binds
26 | KPPYRSH[pS]L [CCDC45 phosphopeptide KPPYRSHsL] | binds
27 | RPR[pS]PGSNSKV [GTF2IRD1 phosphopeptide RPRsPGSNSKV] | binds
28 | RPKLS[pS]PAL [EP300 phosphopeptide RPKLSsPAL] | binds
29 | RPR[pS]PAARL [ZNF219 phosphopeptide RPRsPAARL] | binds
30 | RRS[pS]LDAEIDSL [LPP phosphopeptide RRSsLDAEIDSL] | binds

Biological target: T2, HLA-B*0702
Assay: HLA-B7 eluate MS; ALL1; 1 means <1 copy/cell
Description: as §1

Row | Binder | binding result
31 | RPN[pS]PSPTAL [TLK1 phosphopeptide RPNsPSPTAL] | binds
32 | SPK[pS]PGLKA [RCSD1 phosphopeptide SPKsPGLKA] | binds
33 | RPI[pT]PPRNSA [PPP1CA phosphopeptide RPItPPRNSA] | binds
34 | TPAQPQRR[pS]L [TPX2 phosphopeptide TPAQPQRRsL] | binds
35 | RPV[pS]PGKDI [HIVEP2 phosphopeptide RPVsPGKDI] | binds
36 | RSE[pS]KDRKL [IP6K1 phosphopeptide RSEsKDRKL] | binds
37 | RPH[pS]PEKAF [C17orf85 phosphopeptide RPHsPEKAF] | binds
38 | TPI[pS]PGRASGM [RUNX1 phosphopeptide TPIsPGRASGM] | binds
39 | KPQTRGK[pT]F (also called Carabin) [TBC1D10C phosphopeptide KPQTRGKtF] | binds
40 | SPA[pS]PKISL [ATXN2L phosphopeptide SPAsPKISL] | binds
41 | RSL[pS]PGGAA [RBM15 phosphopeptide RSLsPGGAA] | binds
42 | KPP[pS]PEHQSL [MORC2 phosphopeptide KPPsPEHQSL] | binds
43 | RPW[pS]PAVSA [SKI phosphopeptide RPWsPAVSA] | binds
44 | SPR[pS]PGKPM [phosphopeptide SPRsPGKPM (no gene name in Table 7; no database hit)] | binds
45 | RPPPPPD[pT]PP [KLF2 phosphopeptide RPPPPPDtPP] | binds
46 | RPA[pT]GGPGVA [phosphopeptide RPAtGGPGVA (no gene name in Table 7; Unknown protein)] | binds
47 | KPA[pS]PARRL [MAP1A phosphopeptide KPAsPARRL] | binds
48 | KPR[pS]PDHVL [MACF1 phosphopeptide KPRsPDHVL] | binds
49 | RSG[pS]LERKV (also called C20orf117) [KIAA0889 phosphopeptide RSGsLERKV] | binds
50 | RP[pS]SPALYF [TSC22D4 phosphopeptide RPsSPALYF] | binds
51 | RPA[pS]ARAQPGL [C6orf64 phosphopeptide RPAsARAQPGL] | binds
